The values that follow come from article PMC6941229.

The target of this experiment is SBP-Asi2 (S. cerevisiae) (UniProt P53895).
Chain of UniProt P53895 (P53895 whole entry): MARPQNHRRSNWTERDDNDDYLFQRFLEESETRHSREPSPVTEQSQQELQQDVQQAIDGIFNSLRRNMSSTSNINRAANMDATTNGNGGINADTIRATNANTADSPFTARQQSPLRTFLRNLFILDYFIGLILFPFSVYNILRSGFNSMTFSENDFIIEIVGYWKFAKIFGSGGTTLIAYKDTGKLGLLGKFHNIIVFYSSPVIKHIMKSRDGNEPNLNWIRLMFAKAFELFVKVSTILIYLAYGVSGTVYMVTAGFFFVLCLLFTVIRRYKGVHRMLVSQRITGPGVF

Chain of TM68-MBP (P10614 1-68): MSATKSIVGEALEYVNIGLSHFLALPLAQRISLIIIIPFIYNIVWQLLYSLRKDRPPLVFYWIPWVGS

Regarding “TM68-MBP (from UniProt P10614 1-68) (domain or fragment)”, the ubiquitination of TM68-MBP in proteoliposomes with only the Asi1/Asi3 subcomplex (no Asi2), against proteoliposomes with the entire Asi complex; Ubi Mix, 60 min was 28%.
